Source: patent US20190248882A1 (published 2019)

T1: human ANG-2 (R&D Systems) (UniProt O15123 68-496, biotinylated in the Tie-2 competition ELISA (site not stated))
T1 chain: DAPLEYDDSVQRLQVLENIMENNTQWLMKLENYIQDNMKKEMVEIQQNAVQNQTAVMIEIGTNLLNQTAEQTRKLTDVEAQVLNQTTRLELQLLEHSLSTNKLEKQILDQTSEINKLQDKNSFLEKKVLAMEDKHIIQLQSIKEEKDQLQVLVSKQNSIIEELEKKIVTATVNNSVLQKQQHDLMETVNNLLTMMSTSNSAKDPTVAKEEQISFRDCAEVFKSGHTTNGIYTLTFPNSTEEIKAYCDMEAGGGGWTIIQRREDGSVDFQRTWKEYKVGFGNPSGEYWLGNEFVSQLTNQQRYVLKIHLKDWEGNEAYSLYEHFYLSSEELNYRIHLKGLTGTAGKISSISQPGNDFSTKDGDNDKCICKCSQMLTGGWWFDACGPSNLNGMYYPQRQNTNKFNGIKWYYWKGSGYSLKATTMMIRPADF

B1: ANG-2 (ligand)
chain: T1 chain
modifications: biotinylated in the Tie-2 competition ELISA (site not stated)
B2: A33A8 human anti-ANG-2 HCAb (antibody, V domains shown)
VH: QVQLVESGGGLVQPGGSLRLSCAASGFTFSSYWMHWVRQAPGKGLVWVSRINSDGSSTSYADSVKGRFTISRDNAKNTLYLQMNSLRAEDTAVYYCAREGYSSGGQFDYWGQGTLVTVSS

How the values were obtained:
[1] = molecular target: A33A8 VH; test: BLI (Octet); VH domain alone
[2] = molecular target: T1, human ANG-2 (R&D Systems); test: inhibition of ANG-2 binding to Tie-2 on HEK293 cells

Row | Binder | Kd [1] | IC50 [2]
1 | B1 | < 1 pM | 
2 | B2 |  | 295 pM
